Where two headings read alike, the source gives them in different places.
Assays:
[1] = target: Actin filaments (F-actin) from rabbit skeletal muscle (rabbit) (UniProt P68135)
[2] = target: Actin filaments (F-actin) from rabbit skeletal muscle (rabbit) (UniProt P68135); remark: listed apart in the source
[3] = target: Actin filaments (F-actin) from rabbit skeletal muscle (rabbit) (UniProt P68135); remark: listed apart in the source

Chain of Myosin 5c subfragment 1 (Myo5c-S1, 1-785 amino acids) (Q9NQX4 1-785): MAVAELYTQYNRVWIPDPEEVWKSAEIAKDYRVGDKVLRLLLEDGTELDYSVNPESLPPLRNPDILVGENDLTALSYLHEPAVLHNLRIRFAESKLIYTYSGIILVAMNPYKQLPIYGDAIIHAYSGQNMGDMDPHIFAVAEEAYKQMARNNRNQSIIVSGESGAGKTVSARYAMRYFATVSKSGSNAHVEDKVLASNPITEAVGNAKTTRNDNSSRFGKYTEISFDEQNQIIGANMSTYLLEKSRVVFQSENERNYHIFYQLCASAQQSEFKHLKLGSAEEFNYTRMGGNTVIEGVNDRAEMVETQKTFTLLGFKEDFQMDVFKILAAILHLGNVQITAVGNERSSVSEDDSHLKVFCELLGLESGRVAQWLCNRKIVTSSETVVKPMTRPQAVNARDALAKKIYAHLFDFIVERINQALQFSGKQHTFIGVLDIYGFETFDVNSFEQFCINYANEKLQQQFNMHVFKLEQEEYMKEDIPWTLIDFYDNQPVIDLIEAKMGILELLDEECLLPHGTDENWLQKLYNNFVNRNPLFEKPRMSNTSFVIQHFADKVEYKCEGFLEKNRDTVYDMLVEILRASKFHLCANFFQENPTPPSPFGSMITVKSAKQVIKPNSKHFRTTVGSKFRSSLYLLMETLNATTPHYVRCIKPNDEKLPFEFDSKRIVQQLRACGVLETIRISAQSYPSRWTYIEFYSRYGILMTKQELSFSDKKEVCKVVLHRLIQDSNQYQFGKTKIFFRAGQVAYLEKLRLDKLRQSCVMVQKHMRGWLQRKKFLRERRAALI

half-maximum value (Kact) of the phosphate dissociation rate against F-actin concentration (MDCC-PBP, double-mixing stopped flow) [1]: 14.6 µM
K (ATPase) of the steady-state actin-activated ATPase (NADH-coupled assay) [2]: 26 µM
K (ATPase) of the steady-state actin-activated ATPase (NADH-coupled assay) [3]: 35 µM
Substance: Myosin 5c subfragment 1 (Myo5c-S1, 1-785 amino acids) (from UniProt Q9NQX4 1-785) (domain or fragment)
